Measurements reported in the Immune Epitope Database (IEDB).

Experiments:
HLA-A*30:02 = experiment: IEDB peptide-MHC binding, purified MHC/competitive/radioactivity; filed as Kd, often an IC50 or EC50 that approximates it; ≥ and ≤ were set here for values at or beyond the usual limits of such assays
HLA-B*44:02 = experiment: as above
HLA-B*44:03 = experiment: as above
HLA-A*32:01 = experiment: as above
HLA-A*02:01 [1] = experiment: IEDB peptide-MHC binding, purified MHC/competitive/fluorescence; ≥ and ≤ were set here for values at or beyond the usual limits of such assays
HLA-A*02:01 [2] = experiment: IEDB peptide-MHC binding, purified MHC/direct/fluorescence; filed as Kd, often an IC50 or EC50 that approximates it; ≥ and ≤ were set here for values at or beyond the usual limits of such assays
HLA-A*69:01 = experiment: as above
HLA-B*07:02 = experiment: as above; settings: source organism: Mycobacterium tuberculosis F11
HLA-A*01:01 [3] = experiment: as above
HLA-A*03:01 = experiment: as above; settings: source organism: Mycobacterium tuberculosis F11
HLA-B*40:01 [4] = experiment: IEDB peptide-MHC binding, purified MHC/competitive/radioactivity; filed as Kd, often an IC50 or EC50 that approximates it; ≥ and ≤ were set here for values at or beyond the usual limits of such assays
HLA-A*26:01 = experiment: as above
HLA-B*35:01 = experiment: as above
HLA-B*53:01 = experiment: as above
HLA-B*15:01 = experiment: IEDB peptide-MHC binding, purified MHC/direct/fluorescence; filed as Kd, often an IC50 or EC50 that approximates it; ≥ and ≤ were set here for values at or beyond the usual limits of such assays
HLA-B*51:01 = experiment: IEDB peptide-MHC binding, purified MHC/competitive/radioactivity; filed as Kd, often an IC50 or EC50 that approximates it; ≥ and ≤ were set here for values at or beyond the usual limits of such assays
HLA-A*01:01 [5] = experiment: as above
HLA-B*40:01 [6] = experiment: IEDB peptide-MHC binding, purified MHC/direct/fluorescence; filed as Kd, often an IC50 or EC50 that approximates it; ≥ and ≤ were set here for values at or beyond the usual limits of such assays; settings: source organism: Mycobacterium tuberculosis
HLA-A*02:06 = experiment: IEDB peptide-MHC binding, purified MHC/competitive/radioactivity; filed as Kd, often an IC50 or EC50 that approximates it; ≥ and ≤ were set here for values at or beyond the usual limits of such assays; settings: source organism: Vaccinia virus Copenhagen
HLA-A*02:02 = experiment: as above; settings: source organism: Vaccinia virus Copenhagen
HLA-A*02:03 = experiment: as above; settings: source organism: Vaccinia virus Copenhagen
[7] = source organism: Dengue virus 1 Brazil/97-11/1997
[8] = source organism: Dengue virus 4 Philippines/H241/1956
[9] = source organism: Zaire ebolavirus
[10] = source organism: Escherichia coli O157:H7
[11] = source organism: Shigella dysenteriae
[12] = source organism: Vaccinia virus WR
[13] = source organism: Sudan ebolavirus
[14] = source organism: Dengue virus 2 Jamaica/1409/1983
[15] = source organism: Dengue virus 3 Martinique/1243/1999
[16] = source organism: Yersinia pestis
[17] = source organism: Dengue virus 1 Singapore/S275/1990

With AAVLMLVAHY the Kd (HLA-A*30:02; [7]) was 508 nM.
Work on AEIQPQWIA yielded a Kd (HLA-B*44:02; [8]) of 26.4 nM and a Kd (HLA-B*44:03; [8]) of 1230 nM.
AGILARWSSF gave a Kd (HLA-B*44:02; [7]) of 5110 nM and a Kd (HLA-A*32:01; [7]) of 2820 nM.
AGPPKAENT was tested, and the IC50 (HLA-A*02:01 [1]; [9]) was 66600 nM.
With ALEKGIKDV the Kd (HLA-A*02:01 [2]; [10]) was 6000 nM and the Kd (HLA-A*69:01; [10]) was no less than 20000 nM.
Sequence ALELGRKTL has a Kd (HLA-A*02:01 [2]; [11]) of 8000 nM and a Kd (HLA-A*69:01; [11]) of no less than 20000 nM.
APEFVTAAA was tested, and the Kd (HLA-B*07:02) was 933 nM.
Work on ATALILVSF yielded a Kd (HLA-A*32:01; [12]) of 1.42 nM.
Sequence AVNPGGNIY has a Kd (HLA-A*01:01 [3]; source organism: Mycobacterium tuberculosis F11) of 3000 nM and a Kd (HLA-A*03:01) of no less than 20000 nM.
CASSSDWFY was tested, and the Kd (HLA-A*01:01 [3]; source organism: Tobacco leaf curl Zimbabwe virus) was 2.1 nM.
CESCVYNMM was tested, and the Kd (HLA-B*44:02; [8]) was 180 nM and the Kd (HLA-B*40:01 [4]; [8]) was 201 nM.
DEDHAHWTEA showed a Kd (HLA-A*32:01; [7]) of 390 nM.
DFLLRRWGG showed an IC50 (HLA-A*02:01 [1]; [13]) of 56400 nM.
EDMLAVWNRV gave a Kd (HLA-A*32:01; [14]) of 219 nM.
In the case of EEIAVQNWLA, the Kd (HLA-B*44:03; [14]) is reported as 431 nM.
In the case of EELGDGLAM, the Kd (HLA-B*40:01 [4]; [7]) is reported as 221 nM and the Kd (HLA-B*44:03; [7]) is reported as 76.6 nM.
With EEQTLTILI the Kd (HLA-B*44:02; [14]) was 14 nM and the Kd (HLA-B*44:03; [14]) was 146 nM.
Sequence EEYTDYMPSM has a Kd (HLA-B*40:01 [4]; [14]) of 833 nM and a Kd (HLA-B*44:03; [14]) of 116 nM.
For ELIMKDGRKL, the Kd (HLA-A*26:01; [15]) was 12500 nM.
Sequence ELTGYGTVTM has a Kd (HLA-A*26:01; [14]) of 8470 nM.
EPGQLKLNWF showed a Kd (HLA-B*35:01; [14]) of no less than 42000 nM and a Kd (HLA-B*53:01; [14]) of 593 nM.
EVEDYGFGIF was tested, and the Kd (HLA-A*26:01; [7]) was 1610 nM.
With EVEDYGFGMF the Kd (HLA-A*26:01; [8]) was 72.1 nM.
In the case of EVPFCSHHF, the Kd (HLA-A*26:01; [8]) is reported as 6630 nM.
Work on FEKQLGQIM yielded a Kd (HLA-B*44:02; [7]) of 2550 nM and a Kd (HLA-B*40:01 [4]; [7]) of 558 nM.
Work on FLQGAKWYL yielded a Kd (HLA-A*69:01; source organism: Mycobacterium tuberculosis) of 465 nM.
FLQSPPIRE gave an IC50 (HLA-A*02:01 [1]; [13]) of 38000 nM.
FMHSAAPIT was tested, and the Kd (HLA-A*02:01 [2]; [16]) was 216 nM, the Kd (HLA-A*69:01; [16]) was 7660 nM and the Kd (HLA-B*15:01; [16]) was 1920 nM.
With GEDAPCKIPF the Kd (HLA-B*44:02; [15]) was 59.2 nM.
GESSPNPTI showed a Kd (HLA-B*44:02; [14]) of 83.5 nM and a Kd (HLA-B*40:01 [4]; [14]) of 8.75 nM.
GLENGLNYI gave a Kd (HLA-A*02:01 [2]; source organism: Homo sapiens) of 825 nM.
GVVTTSGTY gave a Kd (HLA-A*26:01; [7]) of 403 nM and a Kd (HLA-A*30:02; [7]) of 169 nM.
Work on IANQAAILM yielded a Kd (HLA-B*35:01; [7]) of 103 nM.
Sequence ILGPDCCIE has an IC50 (HLA-A*02:01 [1]; [13]) of 28100 nM.
Sequence ILLKIVTQF has a Kd (HLA-A*32:01; source organism: Dengue virus 4 Dominica/814669/1981) of 412 nM.
With IPPTAGVLA the Kd (HLA-B*51:01; [15]) was 6140 nM.
ITDVQDMDP gave a Kd (HLA-A*01:01 [3]; source organism: Homo sapiens) of 12300 nM.
Work on KEENLVKSMV yielded a Kd (HLA-B*44:03; [17]) of no less than 22100 nM.
KKILMNFHQ gave an IC50 (HLA-A*02:01 [1]; [9]) of 63400 nM.
KLELKGMSY was tested, and the Kd (HLA-A*30:02; [15]) was no less than 76900 nM and the Kd (HLA-A*01:01 [5]; [15]) was 391 nM.
Sequence KLGEFYNQMM has an IC50 (HLA-A*02:01 [1]; source organism: Influenza B virus) of 2820 nM.
KMLNLNYIV was tested, and the Kd (HLA-A*32:01; [12]) was 640 nM.
For KQRGGYAQF, the Kd (HLA-B*15:01; source organism: Mycobacterium tuberculosis variant bovis BCG str. Pasteur 1173P2) was 323 nM.
KTDWLPMTV was tested, and the Kd (HLA-A*01:01 [5]; source organism: Dengue virus 3 Sri Lanka/1266/2000) was 56.5 nM.
Sequence KTHVSSWEEV has a Kd (HLA-A*32:01; [7]) of 6690 nM.
In the case of LAGPMPVTV, the Kd (HLA-B*51:01; [7]) is reported as 870 nM.
Sequence LAHAIGTSI has a Kd (HLA-B*51:01; [7]) of 157 nM.
With LAIMAVFKM the Kd (HLA-B*35:01; [8]) was 22.2 nM.
In the case of LATGPVLTLW, the Kd (HLA-B*53:01; [8]) is reported as 44.8 nM.
For LAWIPYFGP, the IC50 (HLA-A*02:01 [1]; [9]) was 17800 nM.
Sequence LEENVEVEIW has a Kd (HLA-B*44:02; [14]) of 124 nM and a Kd (HLA-B*44:03; [14]) of 367 nM.
In the case of LEFFLMVLLI, the Kd (HLA-B*40:01 [4]; [7]) is reported as 10100 nM and the Kd (HLA-B*44:03; [7]) is reported as 9090 nM.
LENDMKFTV gave a Kd (HLA-B*40:01 [4]; [17]) of 124 nM.
LENIIVPGL gave a Kd (HLA-B*40:01 [6]) of 71 nM.
LETKGVERL was tested, and the Kd (HLA-B*40:01 [4]; [15]) was 21.7 nM.
Work on LIAGIILLI yielded a Kd (HLA-A*02:06) of 8220 nM, a Kd (HLA-A*02:02) of 0.173 nM and a Kd (HLA-A*32:01; source organism: Vaccinia virus Copenhagen) of no less than 77800 nM. The Kd (HLA-A*02:03) was 38.5 nM.
